Values quoted from earlier work, collected in article PMC1448213.
pKd: −log10 of the molar value.

Molecular target: high affinity NGF receptor (UniProt P35739)
UniProt P35739, sequence (P35739 33-418): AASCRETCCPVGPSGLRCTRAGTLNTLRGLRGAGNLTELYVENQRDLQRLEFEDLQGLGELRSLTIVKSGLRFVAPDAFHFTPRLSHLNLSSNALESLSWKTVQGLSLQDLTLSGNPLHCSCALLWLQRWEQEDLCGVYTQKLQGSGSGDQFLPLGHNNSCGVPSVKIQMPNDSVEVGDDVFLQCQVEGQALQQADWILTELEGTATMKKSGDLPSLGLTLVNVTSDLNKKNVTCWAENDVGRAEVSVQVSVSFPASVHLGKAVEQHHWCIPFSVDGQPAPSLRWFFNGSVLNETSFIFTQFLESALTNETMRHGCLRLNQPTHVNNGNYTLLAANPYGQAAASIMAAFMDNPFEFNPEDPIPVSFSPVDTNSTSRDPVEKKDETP

NGF, sequence (P01139 122-241): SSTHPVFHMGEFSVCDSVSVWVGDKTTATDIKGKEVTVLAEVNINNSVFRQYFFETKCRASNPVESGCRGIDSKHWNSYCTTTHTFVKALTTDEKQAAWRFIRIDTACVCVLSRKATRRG

In the case of NGF (from UniProt P01139), the pKd is listed as 9.22.
